Measurements from patent US5633227, “Secretory leukocyte protease inhibitor as an inhibitor of tryptase” (Miles, Inc., dated 1997).
Each block holds one binder with its values, some of them ahead of it.

Experiments:
[1] = molecular target: T1, bovine trypsin (bovine, UniProt P00760); experiment: GPK-AMC enzyme inhibition assay with bovine trypsin
Procedure: (§1) Inhibitory activity against tryptase and bovine trypsin was measured using Gly-Pro-Lys-aminomethylcoumarin as a substrate. The reaction was performed in assay buffer that consisted of 0.1M Tris (pH 8.0), 1 µg/ml heparin, 0.02% Triton X-100, with 20 mM CaCl_2 included only in the trypsin assays. The amount of coumarin produced was determined by measuring the fluorescence (ex=370 nm, em=432 nm) on a Perkin-Elmer LS-50B fluorimeter. To measure tryptase activity, 12 µl of a 1 nM solution of tryptase (tetramer) was incubated with either the N- (34 to 650 nM final) or the C-terminal (7–150 nM final) domain of SLPI in 1.0 ml of assay buffer for 5 minutes at 37° C. The reaction was started by the addition of the substrate GPK-AMC (20 or 40 µM final) and the increase in fluorescence was measured over a 2 minute period. In order to measure trypsin activity, 3.3 µl of a 10 µg/ml solution was incubated with either the N- or C- terminal domains of SLPI, and assayed using both 10 and 20 µM GPK-AMC. To determine K_i values, Dixon plots of the form 1/V vs [I] were constructed. These are shown in FIG. 8, and the results are listed in Table V. The K_i values for the inhibition of the tryptase catalyzed cleavage of GPK-AMC by the N- and C-terminal domains were determined to be 290 nM and 4.8 nM, respectively (FIG. 8).

[2] = molecular target: T1, bovine trypsin; experiment: GPK-AMC enzyme inhibition assay, Dixon plot, bovine trypsin
Procedure: as §1

binding result [1]: no binding (tested: 1800 nM)
Ki [2]: > 1800 nM
Binder: SGKSFKAGVCPPKKSAQCLRYKKPECQSDWQCPGKKRCCPDTCGIKCLD (other) [N-terminal domain of SLPI (amino acids 1-49)]

Ki [2]: 130 nM
B1: C-terminal domain of SLPI (amino acids 50-107) (other)
chain: PVDTPNPTRRKPGKCPVTYGQCLMLNPPNFCEMDGQCKRDLKCCMGMCGKSCVSPVKA
